From the Immune Epitope Database (IEDB)

Experiments:
HLA-A*26:01 = test: IEDB peptide-MHC binding, purified MHC/competitive/radioactivity; filed as Kd, often an IC50 or EC50 that approximates it; ≥ and ≤ were set here for values at or beyond the usual limits of such assays
HLA-A*02:01 [1] = test: IEDB peptide-MHC binding, purified MHC/competitive/fluorescence; ≥ and ≤ were set here for values at or beyond the usual limits of such assays
HLA-A*69:01 = test: IEDB peptide-MHC binding, purified MHC/direct/fluorescence; filed as Kd, often an IC50 or EC50 that approximates it; ≥ and ≤ were set here for values at or beyond the usual limits of such assays
HLA-A*01:01 = test: IEDB peptide-MHC binding, purified MHC/competitive/radioactivity; filed as Kd, often an IC50 or EC50 that approximates it; ≥ and ≤ were set here for values at or beyond the usual limits of such assays; details: source organism: Dengue virus 2 Jamaica/1409/1983
HLA-A*03:01 = test: IEDB peptide-MHC binding, purified MHC/direct/fluorescence; filed as Kd, often an IC50 or EC50 that approximates it; ≥ and ≤ were set here for values at or beyond the usual limits of such assays
HLA-A*31:01 [2] = test: as above; details: source organism: Vibrio cholerae
HLA-A*02:01 [3] = test: as above; details: source organism: Marburg virus - Musoke, Kenya, 1980
HLA-A*24:02 = test: IEDB peptide-MHC binding, purified MHC/competitive/radioactivity; filed as Kd, often an IC50 or EC50 that approximates it; ≥ and ≤ were set here for values at or beyond the usual limits of such assays; details: source organism: Dengue virus 3 Martinique/1243/1999
HLA-B*07:02 = test: IEDB peptide-MHC binding, purified MHC/direct/fluorescence; filed as Kd, often an IC50 or EC50 that approximates it; ≥ and ≤ were set here for values at or beyond the usual limits of such assays; details: source organism: Homo sapiens
HLA-A*30:02 = test: IEDB peptide-MHC binding, purified MHC/competitive/radioactivity; filed as Kd, often an IC50 or EC50 that approximates it; ≥ and ≤ were set here for values at or beyond the usual limits of such assays; details: source organism: Dengue virus 4 Philippines/H241/1956
HLA-B*58:01 = test: IEDB peptide-MHC binding, purified MHC/direct/fluorescence; filed as Kd, often an IC50 or EC50 that approximates it; ≥ and ≤ were set here for values at or beyond the usual limits of such assays; details: source organism: Influenza A virus (A/Sichuan/2/1987(H3N2))
HLA-A*02:06 = test: IEDB peptide-MHC binding, purified MHC/competitive/radioactivity; filed as Kd, often an IC50 or EC50 that approximates it; ≥ and ≤ were set here for values at or beyond the usual limits of such assays; details: source organism: Vaccinia virus WR
HLA-A*02:03 = test: as above; details: source organism: Vaccinia virus WR
HLA-A*02:02 = test: as above; details: source organism: Vaccinia virus WR
HLA-A*33:01 = test: as above; details: source organism: Dengue virus 1 Brazil/97-11/1997
HLA-A*11:01 = test: as above; details: source organism: Dengue virus 1 Brazil/97-11/1997
HLA-A*68:01 = test: as above; details: source organism: Dengue virus 1 Brazil/97-11/1997
HLA-A*31:01 [4] = test: as above; details: source organism: Dengue virus 1 Brazil/97-11/1997
[5] = source organism: Sudan ebolavirus
[6] = source organism: Dengue virus 1 Brazil/97-11/1997

TVIEELEKL
Kd (HLA-A*26:01; source organism: Dengue virus 4 Philippines/H241/1956): 496 nM

SLTSINVQA
IC50 (HLA-A*02:01 [1]; source organism: West Nile virus NY-99): 503 nM

VMAPDKPSL
Kd (HLA-A*69:01; source organism: Yellow fever virus): ≥ 20000 nM

NITTAVKTV
IC50 (HLA-A*02:01 [1]; [5]): 22800 nM

FTNMEAQLI
Kd (HLA-A*01:01): 2160 nM

ALVREGLRNV
IC50 (HLA-A*02:01 [1]; source organism: Mycobacterium tuberculosis): 130 nM

TYLHGIFDR
Kd (HLA-A*03:01; source organism: Vibrio cholerae): ≥ 20000 nM | Kd (HLA-A*31:01 [2]): 17.1 nM

LPYTFMLRK
Kd (HLA-A*03:01; source organism: Escherichia coli): ≥ 20000 nM

SIILEFFLM
Kd (HLA-A*26:01; [6]): 4190 nM

KAFSMPLGV
IC50 (HLA-A*02:01 [1]; [5]): 9080 nM

FLYDRIAST
Kd (HLA-A*69:01; source organism: Marburg virus - Musoke, Kenya, 1980): 1840 nM | Kd (HLA-A*02:01 [3]): 5 nM

TWAQNIPTAI
Kd (HLA-A*24:02): 681 nM

RPVSPGKDI
Kd (HLA-B*07:02): 45.3 nM

IGKMLESTY
Kd (HLA-A*30:02): 18.5 nM

IAGFIENGW
Kd (HLA-B*58:01): 144 nM

SIPISELSRL
Kd (HLA-A*02:06): 78.2 nM | Kd (HLA-A*02:03): 60.6 nM | Kd (HLA-A*02:02): 252 nM

FVRLDRPHT
IC50 (HLA-A*02:01 [1]; [5]): ≥ 101000 nM

IASILSLETV
Kd (HLA-A*02:06): 47.3 nM | Kd (HLA-A*02:03): 92.8 nM | Kd (HLA-A*02:02): 234 nM

HTQTAGPWHL
Kd (HLA-A*01:01): ≥ 70400 nM

PTILATLNTL
Kd (HLA-A*02:06): 771 nM | Kd (HLA-A*02:03): 130 nM | Kd (HLA-A*02:02): 374 nM

TVMDVISRR
Kd (HLA-A*33:01): 7.07 nM | Kd (HLA-A*11:01): 30.2 nM | Kd (HLA-A*68:01): 7.98 nM | Kd (HLA-A*26:01; [6]): 2340 nM | Kd (HLA-A*31:01 [4]): ≥ 39300 nM

LQLNETIYT
IC50 (HLA-A*02:01 [1]; source organism: Zaire ebolavirus): 2700 nM

TICLKNEGV
Kd (HLA-A*02:06): 311 nM | Kd (HLA-A*02:03): 120 nM | Kd (HLA-A*02:02): 494 nM
